The supplement of paper PMC9112550, “Optimization of the antimicrobial peptide Bac7 by deep mutational scanning” (BMC Biology, 2022)

System: Escherichia coli TOP10
Test: shrunken log2 fold change of peptide-encoding DNA abundance (4.5 h post-induction vs induction); higher = less antimicrobial activity (less host growth inhibition)
Conditions: time post-induction: 4.5 h; library: site-saturation at positions 5, 18, 19, 20
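Further: peptides expressed intracellularly from a pBAD plasmid library in pooled LB shake-flask culture, induced with 0.3% L-arabinose, DNA abundance read by NGS, three biological replicates, DESeq2 with apeglm shrinkage.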

| Sequence | shrunken log2 fold change |
| --- | --- |
| RRIRARPPRLPRPRPRPQEKPRP | -0.0334 |
| RRIRKRPPRLPRPRPRPQDEPRP | -0.0149 |
| RRIRFRPPRLPRPRPRPKALPRP | 0.191 |
| RRIRERPPRLPRPRPRPLREPRP | 0.385 |
| RRIRRRPPRLPRPRPRPRWYPRP | 0.092 |
| RRIRDRPPRLPRPRPRPWTSPRP | 0.21 |
| RRIRERPPRLPRPRPRPGPTPRP | 0.215 |
| RRIRCRPPRLPRPRPRPVTLPRP | -0.34 |
| RRIRTRPPRLPRPRPRPYKLPRP | -0.215 |
| RRIRVRPPRLPRPRPRPKLIPRP | -0.198 |
| RRIRWRPPRLPRPRPRPKIKPRP | -0.0556 |
| RRIRSRPPRLPRPRPRPRGAPRP | 0.737 |
| RRIRVRPPRLPRPRPRPHKYPRP | -0.725 |
| RRIRHRPPRLPRPRPRPWRIPRP | -0.0502 |
| RRIRVRPPRLPRPRPRPIEDPRP | -0.0208 |
| RRIRARPPRLPRPRPRPTTGPRP | 0.331 |
| RRIRRRPPRLPRPRPRPPFYPRP | 0.463 |
| RRIRGRPPRLPRPRPRPHRCPRP | -0.0209 |
| RRIRERPPRLPRPRPRPSHAPRP | -0.0485 |
| RRIRMRPPRLPRPRPRPPHGPRP | 1.06 |
| RRIRHRPPRLPRPRPRPEVFPRP | -0.0194 |
| RRIRCRPPRLPRPRPRPKPIPRP | 0.0598 |
| RRIRDRPPRLPRPRPRPSFDPRP | -0.0842 |
| RRIRSRPPRLPRPRPRPPKEPRP | 1.07 |
| RRIRLRPPRLPRPRPRPCCNPRP | -0.155 |

| Sequence | shrunken log2 fold change |
| --- | --- |
| RRIRVRPPRLPRPRPRPFMKPRP | -0.737 |
| RRIRARPPRLPRPRPRPNAHPRP | 0.437 |
| RRIRNRPPRLPRPRPRPREYPRP | 0.0336 |
| RRIRHRPPRLPRPRPRPTTPPRP | 0.0328 |
| RRIRMRPPRLPRPRPRPLPVPRP | 0.872 |
| RRIRHRPPRLPRPRPRPFSKPRP | 0.0242 |
| RRIRQRPPRLPRPRPRPYICPRP | -0.102 |
| RRIRDRPPRLPRPRPRPPNTPRP | 0.0945 |
| RRIRCRPPRLPRPRPRPLKEPRP | 0.244 |
| RRIRQRPPRLPRPRPRPNFHPRP | -0.232 |
| RRIRQRPPRLPRPRPRPVCTPRP | 0.0864 |
| RRIRTRPPRLPRPRPRPWGVPRP | -0.0284 |
| RRIRIRPPRLPRPRPRPPDHPRP | -0.134 |
| RRIRDRPPRLPRPRPRPLGIPRP | 0.143 |
| RRIRYRPPRLPRPRPRPYTKPRP | -0.351 |
| RRIRKRPPRLPRPRPRPPMEPRP | 0.135 |
| RRIRWRPPRLPRPRPRPCGDPRP | 0.183 |
| RRIRDRPPRLPRPRPRPWTNPRP | -0.111 |
| RRIRKRPPRLPRPRPRPFSDPRP | 0.0546 |
| RRIRLRPPRLPRPRPRPYVAPRP | -0.602 |
| RRIRQRPPRLPRPRPRPGTNPRP | -0.0906 |
| RRIRERPPRLPRPRPRPFPTPRP | -0.573 |
| RRIRIRPPRLPRPRPRPQQLPRP | -0.0183 |
| RRIRERPPRLPRPRPRPFYDPRP | -0.106 |
| RRIRMRPPRLPRPRPRPDMAPRP | 1.86 |

| Sequence | shrunken log2 fold change |
| --- | --- |
| RRIRTRPPRLPRPRPRPTKRPRP | 0.139 |
| RRIRNRPPRLPRPRPRPPRHPRP | 0.271 |
| RRIRLRPPRLPRPRPRPASAPRP | 0.202 |
| RRIRKRPPRLPRPRPRPTWEPRP | -0.0667 |
| RRIRARPPRLPRPRPRPYMWPRP | -0.927 |
| RRIRHRPPRLPRPRPRPKPYPRP | -0.277 |
| RRIRVRPPRLPRPRPRPEHMPRP | -0.0512 |
| RRIRRRPPRLPRPRPRPKTTPRP | 0.0923 |
| RRIRYRPPRLPRPRPRPLPFPRP | -0.78 |
| RRIRRRPPRLPRPRPRPKDIPRP | -0.193 |
| RRIRRRPPRLPRPRPRPDNSPRP | -0.078 |
| RRIRCRPPRLPRPRPRPTVWPRP | 0.553 |
| RRIRDRPPRLPRPRPRPVMNPRP | -0.343 |
| RRIRPRPPRLPRPRPRPYPAPRP | -0.582 |
| RRIRIRPPRLPRPRPRPIINPRP | -1.15 |
| RRIRWRPPRLPRPRPRPVGSPRP | 0.445 |
| RRIRVRPPRLPRPRPRPWCPPRP | 0.0662 |
| RRIRIRPPRLPRPRPRPPEKPRP | -0.0181 |
| RRIRIRPPRLPRPRPRPRFSPRP | -0.231 |
| RRIRPRPPRLPRPRPRPSQGPRP | -0.418 |
| RRIRGRPPRLPRPRPRPVASPRP | 0.623 |
| RRIRCRPPRLPRPRPRPKTKPRP | 0.177 |
| RRIRTRPPRLPRPRPRPYFSPRP | -0.156 |
| RRIRDRPPRLPRPRPRPVKCPRP | -0.117 |
| RRIRARPPRLPRPRPRPPWDPRP | 0.72 |

| Sequence | shrunken log2 fold change |
| --- | --- |
| RRIRHRPPRLPRPRPRPTCGPRP | 0.0685 |
| RRIRWRPPRLPRPRPRPWMNPRP | -0.287 |
| RRIRFRPPRLPRPRPRPVWNPRP | -0.0763 |
| RRIRVRPPRLPRPRPRPWCNPRP | 3.15 |
| RRIRARPPRLPRPRPRPFEWPRP | -0.0571 |
| RRIRPRPPRLPRPRPRPFCIPRP | -0.463 |
| RRIRRRPPRLPRPRPRPHLHPRP | 0.216 |
| RRIRNRPPRLPRPRPRPFTEPRP | -0.236 |
| RRIRERPPRLPRPRPRPMWPPRP | 0.186 |
| RRIRIRPPRLPRPRPRPNPTPRP | -0.17 |
| RRIRFRPPRLPRPRPRPSHMPRP | -0.255 |
| RRIRDRPPRLPRPRPRPFDLPRP | -0.312 |
| RRIRQRPPRLPRPRPRPHMTPRP | -0.391 |
| RRIRFRPPRLPRPRPRPRNLPRP | -0.016 |
| RRIRYRPPRLPRPRPRPGLTPRP | -0.21 |
| RRIRIRPPRLPRPRPRPGWHPRP | -0.0557 |
| RRIRERPPRLPRPRPRPAYYPRP | -0.356 |
| RRIRWRPPRLPRPRPRPLTRPRP | 2.04 |
| RRIRLRPPRLPRPRPRPGEDPRP | 0.121 |
| RRIRSRPPRLPRPRPRPEKTPRP | 0.125 |
| RRIRWRPPRLPRPRPRPPAMPRP | 1.57 |
| RRIRIRPPRLPRPRPRPKDDPRP | -0.254 |
| RRIRDRPPRLPRPRPRPLRLPRP | 0.0919 |
| RRIRPRPPRLPRPRPRPEYWPRP | -0.035 |
| RRIRARPPRLPRPRPRPMPAPRP | 0.722 |

| Sequence | shrunken log2 fold change |
| --- | --- |
| RRIRVRPPRLPRPRPRPWAKPRP | -0.00459 |
| RRIRSRPPRLPRPRPRPLEWPRP | 0.14 |
| RRIRIRPPRLPRPRPRPKQYPRP | -0.474 |
| RRIRLRPPRLPRPRPRPEEFPRP | -0.0121 |
| RRIRRRPPRLPRPRPRPAQAPRP | 0.233 |
| RRIRIRPPRLPRPRPRPHFEPRP | -0.377 |
| RRIRPRPPRLPRPRPRPHLSPRP | -0.142 |
| RRIRIRPPRLPRPRPRPVLPPRP | -0.242 |
| RRIRMRPPRLPRPRPRPTWNPRP | 0.188 |
| RRIRARPPRLPRPRPRPTMWPRP | 0.516 |
| RRIRYRPPRLPRPRPRPKAGPRP | -0.118 |
| RRIRNRPPRLPRPRPRPQFEPRP | -0.013 |
| RRIRPRPPRLPRPRPRPPEDPRP | 0.695 |
| RRIRVRPPRLPRPRPRPHPYPRP | -1.08 |
| RRIRKRPPRLPRPRPRPEFEPRP | 1.34 |
| RRIRTRPPRLPRPRPRPQTKPRP | 0.0553 |
| RRIRERPPRLPRPRPRPDNLPRP | -0.00994 |
| RRIRTRPPRLPRPRPRPQIAPRP | -0.0663 |
| RRIRMRPPRLPRPRPRPSHLPRP | -0.123 |
| RRIRWRPPRLPRPRPRPMDLPRP | -0.214 |
| RRIRFRPPRLPRPRPRPHPPPRP | 1.27 |
| RRIRNRPPRLPRPRPRPIAKPRP | -0.000903 |
| RRIRQRPPRLPRPRPRPTELPRP | 0.124 |
| RRIRKRPPRLPRPRPRPASQPRP | 0.0905 |
| RRIRWRPPRLPRPRPRPWFVPRP | -0.168 |

| Sequence | shrunken log2 fold change |
| --- | --- |
| RRIRYRPPRLPRPRPRPLWAPRP | -0.25 |
| RRIRMRPPRLPRPRPRPAYPPRP | 0.0222 |
| RRIRERPPRLPRPRPRPSKSPRP | -0.688 |
| RRIRVRPPRLPRPRPRPTTMPRP | 0.00526 |
| RRIRPRPPRLPRPRPRPRCFPRP | 0.155 |
| RRIRHRPPRLPRPRPRPHNTPRP | -0.709 |
| RRIRNRPPRLPRPRPRPLTIPRP | -0.389 |
| RRIRIRPPRLPRPRPRPRWEPRP | 0.0225 |
| RRIRQRPPRLPRPRPRPKQFPRP | 0.102 |
| RRIRQRPPRLPRPRPRPTIAPRP | 0.0737 |
| RRIRSRPPRLPRPRPRPIHNPRP | -0.415 |
| RRIRQRPPRLPRPRPRPLTDPRP | 0.132 |
| RRIRTRPPRLPRPRPRPTSSPRP | 0.113 |
| RRIRDRPPRLPRPRPRPQFCPRP | -0.137 |
| RRIRIRPPRLPRPRPRPNILPRP | -0.557 |
| RRIRMRPPRLPRPRPRPAWWPRP | 0.879 |
| RRIRIRPPRLPRPRPRPGGGPRP | 0.659 |
| RRIRYRPPRLPRPRPRPNNWPRP | -0.398 |
| RRIRDRPPRLPRPRPRPVQFPRP | -0.0196 |
| RRIRPRPPRLPRPRPRPPAKPRP | 0.657 |
| RRIRTRPPRLPRPRPRPRWHPRP | 0.133 |
| RRIRIRPPRLPRPRPRPTLAPRP | 0.236 |
| RRIRVRPPRLPRPRPRPPWSPRP | 0.161 |
| RRIRCRPPRLPRPRPRPDQWPRP | -0.197 |
| RRIRVRPPRLPRPRPRPAEVPRP | 0.00588 |
